From PMC5696648

Columns and labels:
[1] = tested on: LexA S119A (Escherichia coli); assay: EMSA
[2] = tested on: LexA WT (Escherichia coli); assay: EMSA

Substance: 44-bp SOS consensus operator duplex
- Kd [1]: 0.043 µM
- Kd [2]: 0.047 µM
